In patent US20180346555A1:

Tests used:
[1] = target: natural Bet v 1 (Indoor Biotechnologies, # NA-BV1-1) (Betula verrucosa (Betula pendula)) (UniProt P15494); assay: blocking ELISA, captured IgE of donor 23658-MD, 1 ug/mL antibody
[2] = target: natural Bet v 1 (Indoor Biotechnologies, # NA-BV1-1) (Betula verrucosa (Betula pendula)) (UniProt P15494); assay: dose-response blocking ELISA, captured IgE of donor 23939-MH, at 1 ug/mL antibody
[3] = target: natural Bet v 1 (Indoor Biotechnologies, # NA-BV1-1) (Betula verrucosa (Betula pendula)) (UniProt P15494); assay: blocking ELISA, captured IgE of donor 29718-MW, 1 ug/mL antibody
[4] = target: natural Bet v 1 (Indoor Biotechnologies, # NA-BV1-1) (Betula verrucosa (Betula pendula)) (UniProt P15494); assay: dose-response blocking ELISA, captured IgE of donor 25340-RR, at 1 ug/mL antibody
[5] = target: natural Bet v 1 (Indoor Biotechnologies, # NA-BV1-1) (Betula verrucosa (Betula pendula)) (UniProt P15494); assay: blocking ELISA, captured IgE of donor 25609-MS, 1 ug/mL antibody
[6] = target: natural Bet v 1 (Indoor Biotechnologies, # NA-BV1-1) (Betula verrucosa (Betula pendula)) (UniProt P15494); assay: blocking ELISA, captured IgE of donor 25340-RR, 1 ug/mL antibody
[7] = target: natural Bet v 1 (Indoor Biotechnologies, # NA-BV1-1) (Betula verrucosa (Betula pendula)) (UniProt P15494); assay: blocking ELISA, captured IgE of donor 23035-BL, 1 ug/mL antibody
[8] = target: natural Bet v 1 (Indoor Biotechnologies, # NA-BV1-1) (Betula verrucosa (Betula pendula)) (UniProt P15494); assay: blocking ELISA, captured IgE of donor 25299-RJ, 1 ug/mL antibody
[9] = target: natural Bet v 1 (Indoor Biotechnologies, # NA-BV1-1) (Betula verrucosa (Betula pendula)) (UniProt P15494); assay: blocking ELISA, captured IgE of donor 25414-CW, 1 ug/mL antibody
[10] = target: natural Bet v 1 (Indoor Biotechnologies, # NA-BV1-1) (Betula verrucosa (Betula pendula)) (UniProt P15494); assay: blocking ELISA, captured IgE of donor 22627-MN, 1 ug/mL antibody
[11] = target: natural Bet v 1 (Indoor Biotechnologies, # NA-BV1-1) (Betula verrucosa (Betula pendula)) (UniProt P15494); assay: blocking ELISA, captured IgE of donor 26532-CC, 1 ug/mL antibody
[12] = target: natural Bet v 1 (Indoor Biotechnologies, # NA-BV1-1) (Betula verrucosa (Betula pendula)) (UniProt P15494); assay: dose-response blocking ELISA, captured IgE of donor 25609-MS, at 1 ug/mL antibody
[13] = target: natural Bet v 1 (Indoor Biotechnologies, # NA-BV1-1) (Betula verrucosa (Betula pendula)) (UniProt P15494); assay: blocking ELISA, captured IgE of donor 23939-MH, 1 ug/mL antibody
[14] = target: Alder (Aln g 1, MyBiosource, Cat# MBS 1041484) (Alder) (UniProt P38948); assay: SPR Biacore 4000, mAb captured by anti-human Fc, 25 C
[15] = target: Celery (Api g 1, MyBiosource, Cat# MBS 1171376) (Celery) (UniProt P49372); assay: as above
[16] = target: European Hornbeam (Car b 1 isoform 2, MyBiosource, Cat# MBS 1043940) (European Hornbeam) (UniProt P38950); assay: as above
[17] = target: Hazel (Cor A 1, MyBiosource, Cat# MBS5304600) (Hazel) (UniProt Q08407); assay: as above
[18] = target: European Hornbeam (Car b 1 isoform 1A & 1B, MyBiosource, Cat#MBS 1200018) (European Hornbeam) (UniProt P38949); assay: as above
[19] = target: Apple (Mal d 1, MyBiosource, Cat# MBS 1224919) (Apple) (UniProt P43211); assay: as above
Sequence of Apple (Mal d 1, MyBiosource, Cat# MBS 1224919) (Apple) (P43211 2-159 limits assumed): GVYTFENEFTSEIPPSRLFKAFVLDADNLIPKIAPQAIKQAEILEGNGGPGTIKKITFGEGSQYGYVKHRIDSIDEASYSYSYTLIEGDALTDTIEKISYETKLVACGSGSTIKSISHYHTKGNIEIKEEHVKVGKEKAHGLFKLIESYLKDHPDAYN

Sequence of European Hornbeam (Car b 1 isoform 2, MyBiosource, Cat# MBS 1043940) (European Hornbeam) (P38950 2-160 limits assumed): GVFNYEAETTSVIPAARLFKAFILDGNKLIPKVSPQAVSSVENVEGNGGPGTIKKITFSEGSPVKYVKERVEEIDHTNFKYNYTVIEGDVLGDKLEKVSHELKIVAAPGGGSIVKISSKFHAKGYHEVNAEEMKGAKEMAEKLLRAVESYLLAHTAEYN
Sequence of Alder (Aln g 1, MyBiosource, Cat# MBS 1041484) (Alder) (P38948 2-160 limits assumed): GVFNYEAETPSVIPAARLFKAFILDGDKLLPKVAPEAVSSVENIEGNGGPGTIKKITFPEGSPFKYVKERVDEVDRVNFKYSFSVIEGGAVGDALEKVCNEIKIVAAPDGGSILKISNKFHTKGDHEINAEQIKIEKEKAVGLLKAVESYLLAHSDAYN
Sequence of European Hornbeam (Car b 1 isoform 1A & 1B, MyBiosource, Cat#MBS 1200018) (European Hornbeam) (P38949 2-160): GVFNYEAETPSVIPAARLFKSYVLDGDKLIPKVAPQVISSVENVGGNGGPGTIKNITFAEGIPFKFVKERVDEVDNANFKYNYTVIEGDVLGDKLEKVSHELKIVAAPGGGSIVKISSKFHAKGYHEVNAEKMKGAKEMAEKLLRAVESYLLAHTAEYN
Sequence of Celery (Api g 1, MyBiosource, Cat# MBS 1171376) (Celery) (P49372 whole entry, canonical isoform): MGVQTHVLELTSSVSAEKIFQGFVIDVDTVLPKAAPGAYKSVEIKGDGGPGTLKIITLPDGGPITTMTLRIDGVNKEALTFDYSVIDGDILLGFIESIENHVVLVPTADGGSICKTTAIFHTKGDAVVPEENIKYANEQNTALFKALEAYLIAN
Sequence of Hazel (Cor A 1, MyBiosource, Cat# MBS5304600) (Hazel) (Q08407 2-160 limits assumed): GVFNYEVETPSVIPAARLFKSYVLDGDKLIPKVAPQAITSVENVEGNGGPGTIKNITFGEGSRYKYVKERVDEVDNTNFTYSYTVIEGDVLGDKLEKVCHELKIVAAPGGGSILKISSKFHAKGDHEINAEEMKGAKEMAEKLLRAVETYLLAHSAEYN

Percent Blocking [1]	Percent Blocking [2]	Percent Blocking [3]	Percent Blocking [4]	Percent Blocking [5]	Percent Blocking [6]	Percent Blocking [7]	Percent Blocking [8]	Percent Blocking [9]	Percent Blocking [10]	Percent Blocking [11]	Percent Blocking [12]	Percent Blocking [13]	100 nM Analyte Bound (RU) [14]	100 nM Analyte Bound (RU) [15]	100 nM Analyte Bound (RU) [16]	100 nM Analyte Bound (RU) [17]	100 nM Analyte Bound (RU) [18]	100 nM Analyte Bound (RU) [19]	Substance
-3%	16.8%	-2%	10.6%	-2%	-1%	-5%	-4%	-4%	-3%	-4%	8.8%	-2%	–	–	–	–	–	–	Isotype control (antibody)
–	–	–	–	–	–	–	–	–	–	–	–	–	0 RU	-1 RU	0 RU	1 RU	0 RU	0 RU	Isotype Control (antibody)
